Starred links: 1 amine or outer side, 2 acyl side, 3 side chain; linkers in the order of their positions; H or OH if unused. Non-standard residues stand in square brackets, D forms with d. Groups on a side chain read outwards from the residue. No end group written: not given here. *: point of attachment. C20 diacid = O=C(O)CCCCCCCCCCCCCCCCCCC(=O)*; C18 diacid = O=C(O)CCCCCCCCCCCCCCCCC(=O)*; αMePhe(2-F) = C[C@](N)(Cc1ccccc1F)C(=O)O; γGlu = O=C(O)[C@H](CCC(=O)[*:2])N[*:1]; 4Pal = N[C@@H](Cc1ccncc1)C(=O)O; αMeL = CC(C)C[C@](C)(N)C(=O)O; Orn = NCCC[C@H](N)C(=O)O; AEEA = NCCOCCOCC(=O)O; Aib = CC(C)(N)C(=O)O
T1: human GLP-1 receptor (human), P43220
T1 chain: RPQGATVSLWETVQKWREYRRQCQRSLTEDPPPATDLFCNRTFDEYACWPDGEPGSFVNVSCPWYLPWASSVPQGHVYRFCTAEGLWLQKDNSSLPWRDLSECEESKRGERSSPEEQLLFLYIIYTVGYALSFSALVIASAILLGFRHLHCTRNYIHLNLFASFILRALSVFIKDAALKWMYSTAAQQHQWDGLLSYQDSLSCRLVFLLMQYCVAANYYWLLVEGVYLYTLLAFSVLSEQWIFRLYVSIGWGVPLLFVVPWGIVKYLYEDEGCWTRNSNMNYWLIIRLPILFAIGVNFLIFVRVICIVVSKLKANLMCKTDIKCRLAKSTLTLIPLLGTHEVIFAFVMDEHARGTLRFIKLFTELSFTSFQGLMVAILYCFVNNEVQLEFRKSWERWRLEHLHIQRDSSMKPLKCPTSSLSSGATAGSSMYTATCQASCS

T2: human glucose-dependent insulinotropic polypeptide (GIP) receptor (human), P48546
T2 chain: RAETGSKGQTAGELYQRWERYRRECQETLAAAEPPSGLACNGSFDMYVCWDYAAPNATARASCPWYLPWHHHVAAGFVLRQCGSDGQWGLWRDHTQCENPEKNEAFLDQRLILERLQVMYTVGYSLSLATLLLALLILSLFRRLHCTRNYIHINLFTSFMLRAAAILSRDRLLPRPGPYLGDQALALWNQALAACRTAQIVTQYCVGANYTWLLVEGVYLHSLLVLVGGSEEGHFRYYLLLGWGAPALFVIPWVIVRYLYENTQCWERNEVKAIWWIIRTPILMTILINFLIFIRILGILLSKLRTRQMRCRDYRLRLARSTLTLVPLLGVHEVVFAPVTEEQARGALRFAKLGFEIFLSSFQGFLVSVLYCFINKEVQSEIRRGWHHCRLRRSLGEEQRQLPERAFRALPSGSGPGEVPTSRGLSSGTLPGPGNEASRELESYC

B1: Example 95 (peptide)
peptide: Y[Aib]EGT[αMePhe(2-F)]ISDYSIALDKIHQ[Aib]EFVNYK([AEEA-AEEA-γGlu-C20 diacid])LEGGPSSGAPPPS-NH2
modifications: N-terminus assumed
SMILES: CC[C@H](C)[C@H](NC(=O)[C@H](CO)NC(=O)[C@H](Cc1ccc(O)cc1)NC(=O)[C@H](CC(=O)O)NC(=O)[C@H](CO)NC(=O)[C@@H](NC(=O)[C@](C)(Cc1ccccc1F)NC(=O)[C@@H](NC(=O)CNC(=O)[C@H](CCC(=O)O)NC(=O)C(C)(C)NC(=O)[C@@H](N)Cc1ccc(O)cc1)[C@@H](C)O)[C@@H](C)CC)C(=O)N[C@@H](C)C(=O)N[C@@H](CC(C)C)C(=O)N[C@@H](CC(=O)O)C(=O)N[C@@H](CCCCN)C(=O)N[C@H](C(=O)N[C@@H](Cc1c[nH]cn1)C(=O)N[C@@H](CCC(N)=O)C(=O)NC(C)(C)C(=O)N[C@@H](CCC(=O)O)C(=O)N[C@@H](Cc1ccccc1)C(=O)N[C@H](C(=O)N[C@@H](CC(N)=O)C(=O)N[C@@H](Cc1ccc(O)cc1)C(=O)N[C@@H](CCCCNC(=O)COCCOCCNC(=O)COCCOCCNC(=O)CC[C@H](NC(=O)CCCCCCCCCCCCCCCCCCC(=O)O)C(=O)O)C(=O)N[C@@H](CC(C)C)C(=O)N[C@@H](CCC(=O)O)C(=O)NCC(=O)NCC(=O)N1CCC[C@H]1C(=O)N[C@@H](CO)C(=O)N[C@@H](CO)C(=O)NCC(=O)N[C@@H](C)C(=O)N1CCC[C@H]1C(=O)N1CCC[C@H]1C(=O)N1CCC[C@H]1C(=O)N[C@@H](CO)C(N)=O)C(C)C)[C@@H](C)CC
B2: Example 4 (peptide)
peptide: Y[Aib]EGTFISDYSI[αMeL]LD[Orn]K([AEEA-AEEA-γGlu-C20 diacid])HQ[Aib]DFVE[4Pal]LLEAGPSSGAPPPS-NH2
modifications: N-terminus assumed
SMILES: CC[C@H](C)[C@H](NC(=O)[C@H](Cc1ccccc1)NC(=O)[C@@H](NC(=O)CNC(=O)[C@H](CCC(=O)O)NC(=O)C(C)(C)NC(=O)[C@@H](N)Cc1ccc(O)cc1)[C@@H](C)O)C(=O)N[C@@H](CO)C(=O)N[C@@H](CC(=O)O)C(=O)N[C@@H](Cc1ccc(O)cc1)C(=O)N[C@@H](CO)C(=O)N[C@H](C(=O)N[C@@](C)(CC(C)C)C(=O)N[C@@H](CC(C)C)C(=O)N[C@@H](CC(=O)O)C(=O)N[C@@H](CCCN)C(=O)N[C@@H](CCCCNC(=O)COCCOCCNC(=O)COCCOCCNC(=O)CC[C@H](NC(=O)CCCCCCCCCCCCCCCCCCC(=O)O)C(=O)O)C(=O)N[C@@H](Cc1c[nH]cn1)C(=O)N[C@@H](CCC(N)=O)C(=O)NC(C)(C)C(=O)N[C@@H](CC(=O)O)C(=O)N[C@@H](Cc1ccccc1)C(=O)N[C@H](C(=O)N[C@@H](CCC(=O)O)C(=O)N[C@@H](Cc1ccncc1)C(=O)N[C@@H](CC(C)C)C(=O)N[C@@H](CC(C)C)C(=O)N[C@@H](CCC(=O)O)C(=O)N[C@@H](C)C(=O)NCC(=O)N1CCC[C@H]1C(=O)N[C@@H](CO)C(=O)N[C@@H](CO)C(=O)NCC(=O)N[C@@H](C)C(=O)N1CCC[C@H]1C(=O)N1CCC[C@H]1C(=O)N1CCC[C@H]1C(=O)N[C@@H](CO)C(N)=O)C(C)C)[C@@H](C)CC
B3: Example 116 (peptide)
peptide: Y[Aib]EGTFISDYSI[αMeL]LD[Orn]IRQ[Aib]DFVEYK([AEEA-AEEA-γGlu-C20 diacid])LEGGPSSGAPPPS-NH2
modifications: N-terminus assumed
SMILES: CC[C@H](C)[C@H](NC(=O)[C@H](CCCN)NC(=O)[C@H](CC(=O)O)NC(=O)[C@H](CC(C)C)NC(=O)[C@](C)(CC(C)C)NC(=O)[C@@H](NC(=O)[C@H](CO)NC(=O)[C@H](Cc1ccc(O)cc1)NC(=O)[C@H](CC(=O)O)NC(=O)[C@H](CO)NC(=O)[C@@H](NC(=O)[C@H](Cc1ccccc1)NC(=O)[C@@H](NC(=O)CNC(=O)[C@H](CCC(=O)O)NC(=O)C(C)(C)NC(=O)[C@@H](N)Cc1ccc(O)cc1)[C@@H](C)O)[C@@H](C)CC)[C@@H](C)CC)C(=O)N[C@@H](CCCNC(=N)N)C(=O)N[C@@H](CCC(N)=O)C(=O)NC(C)(C)C(=O)N[C@@H](CC(=O)O)C(=O)N[C@@H](Cc1ccccc1)C(=O)N[C@H](C(=O)N[C@@H](CCC(=O)O)C(=O)N[C@@H](Cc1ccc(O)cc1)C(=O)N[C@@H](CCCCNC(=O)COCCOCCNC(=O)COCCOCCNC(=O)CC[C@H](NC(=O)CCCCCCCCCCCCCCCCCCC(=O)O)C(=O)O)C(=O)N[C@@H](CC(C)C)C(=O)N[C@@H](CCC(=O)O)C(=O)NCC(=O)NCC(=O)N1CCC[C@H]1C(=O)N[C@@H](CO)C(=O)N[C@@H](CO)C(=O)NCC(=O)N[C@@H](C)C(=O)N1CCC[C@H]1C(=O)N1CCC[C@H]1C(=O)N1CCC[C@H]1C(=O)N[C@@H](CO)C(N)=O)C(C)C
B4: Example 120 (peptide)
peptide: Y[Aib]EGT[αMePhe(2-F)]ISDYSILLDKIHQ[Aib]DFVE[4Pal]K([AEEA-AEEA-γGlu-C20 diacid])LEAGPSSGAPPPS-NH2
modifications: N-terminus assumed
SMILES: CC[C@H](C)[C@H](NC(=O)[C@H](CO)NC(=O)[C@H](Cc1ccc(O)cc1)NC(=O)[C@H](CC(=O)O)NC(=O)[C@H](CO)NC(=O)[C@@H](NC(=O)[C@](C)(Cc1ccccc1F)NC(=O)[C@@H](NC(=O)CNC(=O)[C@H](CCC(=O)O)NC(=O)C(C)(C)NC(=O)[C@@H](N)Cc1ccc(O)cc1)[C@@H](C)O)[C@@H](C)CC)C(=O)N[C@@H](CC(C)C)C(=O)N[C@@H](CC(C)C)C(=O)N[C@@H](CC(=O)O)C(=O)N[C@@H](CCCCN)C(=O)N[C@H](C(=O)N[C@@H](Cc1c[nH]cn1)C(=O)N[C@@H](CCC(N)=O)C(=O)NC(C)(C)C(=O)N[C@@H](CC(=O)O)C(=O)N[C@@H](Cc1ccccc1)C(=O)N[C@H](C(=O)N[C@@H](CCC(=O)O)C(=O)N[C@@H](Cc1ccncc1)C(=O)N[C@@H](CCCCNC(=O)COCCOCCNC(=O)COCCOCCNC(=O)CC[C@H](NC(=O)CCCCCCCCCCCCCCCCCCC(=O)O)C(=O)O)C(=O)N[C@@H](CC(C)C)C(=O)N[C@@H](CCC(=O)O)C(=O)N[C@@H](C)C(=O)NCC(=O)N1CCC[C@H]1C(=O)N[C@@H](CO)C(=O)N[C@@H](CO)C(=O)NCC(=O)N[C@@H](C)C(=O)N1CCC[C@H]1C(=O)N1CCC[C@H]1C(=O)N1CCC[C@H]1C(=O)N[C@@H](CO)C(N)=O)C(C)C)[C@@H](C)CC
B5: Example 87 (peptide)
peptide: Y[Aib]EGTFISDYSI[αMeL]LD[Orn]K([AEEA-AEEA-γGlu-C18 diacid])HQ[Aib]DFVE[4Pal]LLEAGPSSGAPPPS-NH2
modifications: N-terminus assumed
SMILES: CC[C@H](C)[C@H](NC(=O)[C@H](Cc1ccccc1)NC(=O)[C@@H](NC(=O)CNC(=O)[C@H](CCC(=O)O)NC(=O)C(C)(C)NC(=O)[C@@H](N)Cc1ccc(O)cc1)[C@@H](C)O)C(=O)N[C@@H](CO)C(=O)N[C@@H](CC(=O)O)C(=O)N[C@@H](Cc1ccc(O)cc1)C(=O)N[C@@H](CO)C(=O)N[C@H](C(=O)N[C@@](C)(CC(C)C)C(=O)N[C@@H](CC(C)C)C(=O)N[C@@H](CC(=O)O)C(=O)N[C@@H](CCCN)C(=O)N[C@@H](CCCCNC(=O)COCCOCCNC(=O)COCCOCCNC(=O)CC[C@H](NC(=O)CCCCCCCCCCCCCCCCC(=O)O)C(=O)O)C(=O)N[C@@H](Cc1c[nH]cn1)C(=O)N[C@@H](CCC(N)=O)C(=O)NC(C)(C)C(=O)N[C@@H](CC(=O)O)C(=O)N[C@@H](Cc1ccccc1)C(=O)N[C@H](C(=O)N[C@@H](CCC(=O)O)C(=O)N[C@@H](Cc1ccncc1)C(=O)N[C@@H](CC(C)C)C(=O)N[C@@H](CC(C)C)C(=O)N[C@@H](CCC(=O)O)C(=O)N[C@@H](C)C(=O)NCC(=O)N1CCC[C@H]1C(=O)N[C@@H](CO)C(=O)N[C@@H](CO)C(=O)NCC(=O)N[C@@H](C)C(=O)N1CCC[C@H]1C(=O)N1CCC[C@H]1C(=O)N1CCC[C@H]1C(=O)N[C@@H](CO)C(N)=O)C(C)C)[C@@H](C)CC

What was measured:
[1] = target: human glucagon receptor (human), P47871; experiment: SPA, displacement of [125I]-Gcg from hGcgR membranes, 0.1% bacitracin
[2] = target: T1, human GLP-1 receptor (human), P43220; experiment: SPA, displacement of [125I]-GLP-1 from hGLP-1R membranes, 0.1% bacitracin
[3] = target: T2, human glucose-dependent insulinotropic …; experiment: SPA, displacement of [125I]-GIP from hGIPR membranes, 0.1% bacitracin

human glucagon receptor (human), P47871, sequence (P47871 26-477): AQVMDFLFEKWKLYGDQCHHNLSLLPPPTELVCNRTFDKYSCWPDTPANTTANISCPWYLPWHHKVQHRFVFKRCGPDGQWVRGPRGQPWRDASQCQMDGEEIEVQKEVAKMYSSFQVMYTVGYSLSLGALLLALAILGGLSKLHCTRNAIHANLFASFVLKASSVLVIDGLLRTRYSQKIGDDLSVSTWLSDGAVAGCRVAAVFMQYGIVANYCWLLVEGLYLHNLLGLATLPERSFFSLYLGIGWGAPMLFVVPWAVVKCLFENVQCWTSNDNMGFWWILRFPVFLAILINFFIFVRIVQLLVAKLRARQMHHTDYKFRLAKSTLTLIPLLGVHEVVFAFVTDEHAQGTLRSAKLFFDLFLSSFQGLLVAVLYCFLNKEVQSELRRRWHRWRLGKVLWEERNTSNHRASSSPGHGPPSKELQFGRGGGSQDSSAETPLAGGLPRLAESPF

| Binder | Ki [1] [nM] | Ki [2] [nM] | Ki [3] [nM] |
| --- | --- | --- | --- |
| Y[Aib]EGTFISDYSI[αMeL]LD[Orn]IHQ[Aib]DFVEYK([AEEA-AEEA-γGlu-C20 diacid])LEGGPSSGAPPPS-NH2 [Example 6] | 453 | 571 | 0.104 |
| B1 | 85 | 832 | 0.0255 |
| B2 | 431 | 423 | 0.062 |
| B3 | 178 |  | 0.166 |
| B4 | 575 |  | 0.171 |
| B5 | 576 | 849 | 0.0538 |

Reference: patent US20210032299A1
